Test results taken from patent US7012128B2, “Interaction between cyclin D1 and steroid receptor co-activators and uses thereof in assays” (TopoTarget UK Limited, priority 1998, dated 2006).

Legend:
ER = biological target: T1, ER (Homo sapiens, UniProt P03372); test: ER activation, ERE-reporter gene, in T47D cells; format: cell-based; parameters: T47D and MCF-7, which contain endogenous wild type ER; endogenous in cells; host or cells: MCF-7; T47D; details: relative low levels of cyclin D1, 17β-estradiol enriched medium
T1 sequence (P03372 1-595): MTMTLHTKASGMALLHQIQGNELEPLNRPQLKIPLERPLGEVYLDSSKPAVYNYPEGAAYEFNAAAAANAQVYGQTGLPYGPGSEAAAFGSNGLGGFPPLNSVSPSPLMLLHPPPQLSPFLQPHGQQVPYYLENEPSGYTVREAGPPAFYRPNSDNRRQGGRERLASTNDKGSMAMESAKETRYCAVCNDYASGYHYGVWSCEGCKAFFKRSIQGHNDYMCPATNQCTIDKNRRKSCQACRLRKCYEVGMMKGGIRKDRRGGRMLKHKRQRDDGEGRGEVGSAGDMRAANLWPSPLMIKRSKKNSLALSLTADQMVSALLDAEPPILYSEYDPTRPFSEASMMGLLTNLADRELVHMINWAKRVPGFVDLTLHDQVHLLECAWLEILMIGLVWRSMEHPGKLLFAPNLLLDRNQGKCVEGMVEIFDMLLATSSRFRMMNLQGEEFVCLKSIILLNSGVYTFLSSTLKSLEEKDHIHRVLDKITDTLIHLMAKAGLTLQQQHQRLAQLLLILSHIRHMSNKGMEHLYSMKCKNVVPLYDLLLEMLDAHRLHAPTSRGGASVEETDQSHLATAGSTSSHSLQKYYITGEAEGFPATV
Excerpt: The ER-containing T47D and MCF-7 breast cancer cells were maintained in 17β-estradiol enriched medium with 10%fetal calf serum after cotransfection with a cyclin D1 L254/255A mutant expression vector and an ERE-reporter gene for testing its effect on ER activation (left panel). ER transactivation in the absence of co-expression of the cyclin D1 mutant was set at 100%.
To get more insight in the role of cyclin D1 in ER transactivation in breast cancers with elevated levels of cyclin D1, we have tested the effect of the mutant cyclin D1 L254/255A on ER activation in two different breast cancer cell lines. This cyclin D1 mutant does bind to ER, but fails both to interact with SRC-1 as shown above and consequently fails to activate ER (FIG. 1B). Therefore, this mutant can act as a dominant negative in cyclin D1-mediated ER transactivation as it binds to ER and fails to recruit coactivators. We tested the effect of this cyclin D1 mutant on ER activation in two breast cancer cell lines, T47D and MCF-7, which contain endogenous wild type ER, but differ in their cyclin D1 protein levels (FIG. 6). […] In contrast, in MCF-7, which contain relative high levels of cyclin D1 (FIG. 6), the cyclin D1 mutant inhibited up to 50% of ER activity. Thus, this dominant negative cyclin D1 mutant preferentially interferes with ER activation in breast cancer cells that have high levels of cyclin D1 protein.

wild type ER = test: ERE-TATA-luciferase transactivation of wild type ER in COS-7 cells; format: cell-based; details: COS-7, wild type ER, presence of ligand
Experimental: FIG. 1. Mapping of the region of cyclin D1 required for ER-mediated transactivation. • (A) The effect of cyclin D1 deletion mutants on ER activation in the presence of ligand. The cyclin D1 derivatives used in this study are shown in the left panel; right side of Figure represents the relative capacity of the mutants to potentiate ERE-dependent transcription. ER-negative COS-7 cells were transfected with expression vectors for wild type ER (200 ng), cyclin D1 or cyclin D1 mutants (2.5 μg), an internal control §-galactosidase plasmid (0.5 μg) and an ERE-TATA-luciferase reporter (3 μg). The effect on ER transactivation of wild type cyclin D1 was set to 100%. These studies were performed in three separate experiments and expressed as mean values with standard deviation less then […]. The alignment of leucine-rich motif of ER with D-type cyclins are shown on the bottom; the leucine-rich motif in cyclin D1 is indicated as a dark box. The identifiers for the sequences shown are as follows: Cyclin D1 (SEQ ID NO:11), Estrogen receptor (SEQ ID NO:12), the Cyclin D2 (SEQ ID NO:13), and the Cyclin D3 (SEQ ID NO:14). • (B) ER activation by D-type cyclins, cyclin D1 L254/255A point mutant (D1-LALA) and SRC-1 in the presence of ligand. COS-7 cells were transfected with D-type cyclin expression vectors, cyclin D1 Leucine-to-Alanine point mutant (D1-LALA) or SRC-1 expression vector together with wild type ER expression vector, an ERE-TATA-luciferase reporter plasmid and the internal control β-galactosidase construct. Data are expressed as relative luciferase activity compared with basal ERE-luciferase activity of wild type ER and are normalized for transfection efficiencies.
FIG. 3. Role of coactivators in cyclin D1—induced transactivation. • (A) Effect of a dominant negative form of SRC-1 (SRC1-DN) on ER transactivation. SRC1-DN encoding amino acids 1245-1441 of SRC-1 (1, 2.5 and 5 μg) was introduced by transient transfection together with wild type ER (200 ng) and was tested for its ability to modulate ERE-dependent transcription. • (B) Effect of SRCI-DN on SRC-1 and TIF 2 mediated ER transactivation. SRC-1 (3 μg) or TIF-2 (3 μg) were transfected with SRC1-DN (3 μg) and tested for ER transactivation. • (C) Effect of SRC1-DN on cyclin D1-induced transactivation of ER 1-535 mutant. Cyclin D1 was cotransfected with SRC1-DN (1, 2.5, 5 μg) and tested for its effect on an ER harboring a deletion of coactivator binding site in helix 12 (ER 1-535). • (D) Effect of SRC1-DN on cyclin D1-induced transactivation of ER L543/544A mutant. Cyclin D1 and SRC1-DN (1, 2.5, 5 gg) were transfected and tested for the activity of ER helix 12 point mutant (ER L543/544A). The transient transfections (A-C) were performed in COS-7 cells, which were maintained in DMEM with 10 nM ligand. The relative activity was calculated by normalizing to the internal control and was divided by luciferase activity of ER (mutant) in the presence of ligand. The transfection for each set of conditions were done at least in four independent experiments and expressed as average ±SD.
To study how cyclin D1 activates ER, cyclin D1 deletion mutants were tested for their effect on ER-transactivation. COS-7 cells were transfected with cyclin D1 mutants, together with ER and a luciferase reporter gene construct driven by a minimal TATA promoter linked to an estrogen response element (ERE). […] This part of the protein is not involved in CDK interaction and is poorly conserved among the different cyclins. […] To test the relevance of this leucine-rich domain of cyclin D1 in ER activation, a cyclin D1 mutant was constructed in which leucines 254 and 255 were mutated to alanines (D1 L254/255A). This mutation in cyclin D1 is similar to the mutation in ER (ER L543/544A) that interferes with coactivator binding to AF-2 (Danielian et al., 1992). […]

inhibition of ER activity (ER): slight inhibition
Substance: Cyclin D1-LALA: cyclin D1 mutant in which leucines 254 and 255 were mutated to alanines; dominant negative
ER transactivation capacity (wild type ER): virtually unable to activate wild type ER
